Target: erb-b2 receptor tyrosine kinase 2 (HER2) on target cells (Homo sapiens (Human), UniProt P04626 23-1255)
Experiment: cell-based or functional assay

EC50 (molecules/cell), Jurkat NFAT luciferase activation, mRNA titration in HeLa; construct CT1094 (CAR only): 6500 molecules/cell
EC50 (molecules/cell), Jurkat NFAT luciferase activation, mRNA titration in HeLa; construct CT1113 (CT1094 + Murine blocker): 4900 molecules/cell
EC50 (molecules/cell), Jurkat NFAT luciferase activation, mRNA titration in HeLa; construct CT1121 (CT1094 + Human-1 blocker): 4600 molecules/cell
EC50 (molecules/cell), Jurkat NFAT luciferase activation, mRNA titration in HeLa; construct CT1187 (CT1094 + Human-2 blocker): 4500 molecules/cell
B1: HER2 CAR CT1094 (receptor)
chain: QVQLQQSGPELKKPGETVKISCKASGYPFTNYGMNWVKQAPGQGLKWMGWINTSTGESTFADDFKGRFDFSLETSANTAYLQINNLKSEDSATYFCARWEVYHGYVPYWGQGTTVTVSSGGGGSGGGGSGGGGSDIQLTQSHKFLSTSVGDRVSITCKASQDVYNAVAWYQQKPGQSPKLLIYSASSRYTGVPSRFTGSGSGPDFTFTISSVQAEDLAVYFCQQHFRTPFTFGSGTKLEIKAEPKSPDKTHTCPPCPKDPKFWVLVVVGGVLACYSLLVTVAFIIFWVRSKRSRLLHSDYMNMTPRRPGPTRKHYQPYAPPRDFAAYRSRVKFSRSADAPAYKQGQNQLYNELNLGRREEYDVLDKRRGRDPEMGGKPRRKNPQEGLYNELQKDKMAEAYSEIGMKGERRRGKGHDGLYQGLSTATKDTYDALHMQALPPR

Source: patent publication US20220339194A1 (A2 BIOTHERAPEUTICS, published 2022)
